Assays:
[1] = target: HAUSP TRAF domain (HAUSP^62-205) (human); assay: ITC
[2] = target: HAUSP TRAF domain (HAUSP^62-205) (human); assay: ITC, titration against HAUSP TRAF domain, 20 °C
[3] = target: HAUSP TRAF domain (HAUSP^62-205) (human); assay: competitive ITC: vIRF4^202-216 titrated into TRAF pre-titrated with p53^350-364 (competitor)
[4] = target: HAUSP TRAF domain (HAUSP^62-205) (human); assay: competitive ITC: vIRF4^202-216 titrated into TRAF pre-titrated with MDM2^137-152 (competitor)
[5] = target: HAUSP TRAF domain (HAUSP^62-205) (human); assay: competitive ITC: vIRF4^202-216 titrated into TRAF pre-titrated with p53^355-369 (competitor)

Sequence of HAUSP TRAF domain (HAUSP^62-205) (human) (chain, as listed by the source): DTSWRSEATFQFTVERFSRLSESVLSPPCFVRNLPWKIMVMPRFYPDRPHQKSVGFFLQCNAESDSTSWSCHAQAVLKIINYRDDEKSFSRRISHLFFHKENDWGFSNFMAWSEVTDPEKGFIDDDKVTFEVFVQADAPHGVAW

B1: vIRF4^153-256 (other)
chain: SDTREQSYEEAGAAAPAPPKAPSGLRGRPRKSNRYYNVGDITTEQKAACSVWIPVNEGASTSGMGSSGTRQVTQASSFTWRVPGDPPAPSTLTGPSDPHSSGAG
[1]
  fold higher affinity (against vIRF4^153-216): 7 fold

B2: vIRF4^202-216 peptide (vif1) (peptide)
peptide: SVWIPVNEGASTSGM
notes: Synthesized peptide (Peptron); also called vif1 peptide
[2]
  TΔS: -10.6 kcal/mol
  ΔG: -8.6 kcal/mol
  ΔH: -19.2 kcal/mol
[3]
  ΔHobs: -19.1 kcal/mol
[4]
  ΔHobs: -25.9 kcal/mol
[5]
  ΔHobs: -19.1 kcal/mol
